From patent publication US20020110800

Target: wild-type TrkA, baculovirus-expressed, activated (autophosphorylated) (UniProt P04629)

SHP-1
dephosphorylation of 32P-autophosphorylated Trk in vitro: approximately 5-fold dephosphorylation
